Source: patent US20230331840A1 (published 2023)

Tests used:
K562-CD22 = K562-CD22 (UniProt P20273 20-847); assay: FACS binding
[1] = target: T1, Human CD22 extracellular segment conjugated His label (human, UniProt P20273 20-687); assay: BLI (Fortebio)
[2] = target: T1, Human CD22 extracellular segment …; assay: ELISA

B1: RFB-4 (antibody, V domains shown)
VH: EVQLVESGGGLVKPGGSLKLSCAASGFAFSIYDMSWVRQTPEKRLEWVAYISSGGGTTYYPDTVKGRFTISRDNAKNTLYLQMSSLKSEDTAMYYCARHSGYGSSYGVLFAYWGQGTLVTVSA
VL: DIQMTQTTSSLSASLGDRVTISCRASQDISNYLNWYQQKPDGTVKLLIYYTSILHSGVPSRFSGSGSGTDYSLTISNLEQEDFATYFCQQGNTLPWTFGGGTKLEIK
Question: With B1 as the binder, how does the EC50 (K562-CD22) read?
Answer: 632 pM

B2: CD22 antibody FC2-153 (antibody, V domains shown)
VH: QVQLQQSGAELMKPGASVKISCKATGYTFSSYWIEWVKQRPGHGLEWIGEILPGSGSTNYNEKFKGKATFTADTSSNTAYMQLSSLTSEDSAVYYCARWGQLGLFYAMDYWGQGTSVTVSS
VL: DIQMTQSPASLSASVGETVTITCRASENIYSYLAWYQQKQGKSPQLLVYNAKTLAEGVPSRFSGSGSGTQFSLKINSLQPEDFGSYYCQHHYGSPLTFGAGTKLELKR
Question: What does the source list for B2?
Answer: Kd [1]: 920 pM; EC50 [2]: 145 pM

B3: CD22 antibody FC2-201 (antibody, V domains shown)
VH: KVQLQQSGAGLVKPGASVKLSCKASGYTFTDSILHWLMQRSGQGLEWIGWFYPGSGSIKYNEKFKDKATLTADKSSSTVYMELSRLTSEDSAFYFCARHEDGYDGFAYWGQGTLVTVSA
VL: ENVLTQSPAIMSASLGEKVTMSCRASSSVNYIFWYQQKSDASPKLWIYYTSNLAPGVPARFSGSGSGNSYSLTISSMEGEDAATYYCQQFTSSPFTFGSGTKLEIKR
Question: Which results are given for B3?
Answer: Kd [1]: 72.2 pM; EC50 [2]: 96 pM

B4: CD22 antibody FC2-070 (antibody, V domains shown)
VH: QVQLQQPGAELVKPGTSVKLSCKASGYNFTSYWINWVKLRPGQGLEWIGDIYPGSGNTNYNEKFKSKATLTVDTSSTTAYMQLSSLASEDSALYYCARRGYLDYWGQGTTLTVSS
VL: DIQMTQSPASLSASVGETVTITCRASGNIHNYLAWYQQKQGKSPQLLVYNAKTLADGVPSRFSGSGSGTQYSLTINSLQPEDFGSYYCQHFWSTPLTFGAGTKLELKR
Question: Which results are given for B4?
Answer: Kd [1]: 569 pM; EC50 [2]: 154 pM

B5: CD22 antibody FC2-117 (antibody, V domains shown)
VH: DVQLQESGPGLVKPSQSLSLTCSVTGYSITSGYYWNWIRQFPGNKLEWMGYISYDGSNNYNPSLKNRISITRDTSKNQFFLKLNSVTTEDTATYYCTKGGYGYYFDYWGQGTTLTVSS
VL: DIQMTQSPASLSASVGETVTITCRASGNIHNYLAWYQQKQGKSPQLLVYNAKTLADGVPSRFSGSGSGTQYSLKINSLQPEDFGSYYCQHFWSTPPTFGGGTKLEIKR
Question: How did the Kd [1] turn out when B5 was run?
Answer: 2730 pM

Question: And the EC50 [2]?
Answer: 629 pM

B6: CD22 antibody FC2-203 (antibody, V domains shown)
VH: QVQLQQPGAELVRPGASVKLSCKASGYTFSSYWINWVKQRPGQGLEWIGNIYPSDSYTNYNQKFKDKATLTVDKSSSTAYMQLSSPTSEDSAVYYCTREGHYYGSFGAMDYWGQGTSVTVSS
VL: DVQITQSPSYLAASPGETITINCRASKTISKYLAWYQEKPGKTNKLLIYSGSTLQSGIPSRFSGSGSGTDFTLTISSLEPEDFAMYYCQQHNEYPWTFGGGTKLEIKR
Question: What does the source list for B6?
Answer: Kd [1]: 7080 pM; EC50 [2]: 457 pM
